The record followed here is paper PMC4328751 (EMBO Reports, 2014).

For assay [1], the target named is T1, yHsp70 (yeast, UniProt P10591 1-642, 5-(and-6)-carboxyfluorescein coupled (in the analytical ultracentrifugation)). Put plainly: AUC.
For assay [2], the target named is yHsp90 (yeast, UniProt P02829 1-709). The experiment in a line: SPR. For orientation: SPR reads the build-up and loss of mass on a sensor chip optically.
Assay [3] concerns the target hHsp90 (human, UniProt P08238 1-724). The experiment in a line: SPR.
Assay [4] has as its target T1, yHsp70. Put plainly: SPR.

T1 sequence (P10591 whole entry): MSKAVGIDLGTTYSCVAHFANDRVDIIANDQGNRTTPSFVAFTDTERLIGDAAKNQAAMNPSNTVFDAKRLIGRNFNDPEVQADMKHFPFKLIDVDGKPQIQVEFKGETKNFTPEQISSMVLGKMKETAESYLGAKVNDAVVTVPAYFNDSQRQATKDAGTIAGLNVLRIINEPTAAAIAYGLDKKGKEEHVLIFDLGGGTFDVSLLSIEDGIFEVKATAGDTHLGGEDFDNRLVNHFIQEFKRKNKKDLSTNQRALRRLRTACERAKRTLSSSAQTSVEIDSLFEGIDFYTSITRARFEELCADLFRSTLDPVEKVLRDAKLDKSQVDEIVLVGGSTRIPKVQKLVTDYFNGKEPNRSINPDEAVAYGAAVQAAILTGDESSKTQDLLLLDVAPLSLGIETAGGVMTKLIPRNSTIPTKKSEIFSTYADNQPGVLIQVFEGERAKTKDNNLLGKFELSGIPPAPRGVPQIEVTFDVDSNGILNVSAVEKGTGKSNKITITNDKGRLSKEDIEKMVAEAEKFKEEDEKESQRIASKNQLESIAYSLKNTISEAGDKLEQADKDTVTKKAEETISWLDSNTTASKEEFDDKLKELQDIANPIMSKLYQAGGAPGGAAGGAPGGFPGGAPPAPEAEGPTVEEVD
yHsp90, sequence (P02829 whole entry): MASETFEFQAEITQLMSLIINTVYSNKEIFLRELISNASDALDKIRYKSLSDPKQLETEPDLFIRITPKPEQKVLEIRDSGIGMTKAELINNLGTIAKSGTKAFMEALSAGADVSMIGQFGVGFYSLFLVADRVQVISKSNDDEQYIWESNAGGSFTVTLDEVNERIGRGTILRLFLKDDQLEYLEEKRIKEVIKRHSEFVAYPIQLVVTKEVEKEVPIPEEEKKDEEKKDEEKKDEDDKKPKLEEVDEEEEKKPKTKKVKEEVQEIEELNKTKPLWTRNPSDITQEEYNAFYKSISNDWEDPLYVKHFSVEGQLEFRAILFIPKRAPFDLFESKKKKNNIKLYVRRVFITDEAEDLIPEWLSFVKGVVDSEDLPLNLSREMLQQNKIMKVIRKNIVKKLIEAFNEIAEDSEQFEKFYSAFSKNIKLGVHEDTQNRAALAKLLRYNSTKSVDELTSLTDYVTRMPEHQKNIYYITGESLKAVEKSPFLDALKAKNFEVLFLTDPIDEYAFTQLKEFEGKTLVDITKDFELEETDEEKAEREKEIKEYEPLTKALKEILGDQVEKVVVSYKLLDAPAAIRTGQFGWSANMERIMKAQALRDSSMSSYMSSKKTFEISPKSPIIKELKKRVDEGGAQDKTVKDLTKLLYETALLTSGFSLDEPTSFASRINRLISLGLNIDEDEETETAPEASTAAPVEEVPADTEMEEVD
hHsp90, sequence (P08238 whole entry): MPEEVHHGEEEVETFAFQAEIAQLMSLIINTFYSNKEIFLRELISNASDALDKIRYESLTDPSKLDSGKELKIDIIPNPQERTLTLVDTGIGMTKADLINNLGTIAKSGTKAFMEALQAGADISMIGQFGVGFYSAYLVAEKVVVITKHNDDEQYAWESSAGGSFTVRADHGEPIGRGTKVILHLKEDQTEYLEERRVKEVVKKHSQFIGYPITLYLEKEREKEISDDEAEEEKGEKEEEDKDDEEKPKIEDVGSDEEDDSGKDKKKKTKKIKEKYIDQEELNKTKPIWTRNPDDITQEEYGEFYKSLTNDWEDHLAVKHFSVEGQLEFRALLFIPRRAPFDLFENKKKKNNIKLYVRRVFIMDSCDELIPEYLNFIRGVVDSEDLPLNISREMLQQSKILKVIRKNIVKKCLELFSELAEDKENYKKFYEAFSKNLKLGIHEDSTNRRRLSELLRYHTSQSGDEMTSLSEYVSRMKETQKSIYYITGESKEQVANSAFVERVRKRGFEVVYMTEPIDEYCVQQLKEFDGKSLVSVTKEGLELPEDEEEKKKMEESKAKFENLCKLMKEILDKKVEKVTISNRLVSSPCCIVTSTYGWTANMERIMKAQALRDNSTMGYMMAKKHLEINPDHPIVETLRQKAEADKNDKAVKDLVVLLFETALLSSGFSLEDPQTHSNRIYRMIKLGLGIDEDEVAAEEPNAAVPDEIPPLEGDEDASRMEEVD

B1: Sti1 (natural protein)
chain: MSLTADEYKQQGNAAFTAKDYDKAIELFTKAIEVSETPNHVLYSNRSACYTSLKKFSDALNDANECVKINPSWSKGYNRLGAAHLGLGDLDEAESNYKKALELDASNKAAKEGLDQVHRTQQARQAQPDLGLTQLFADPNLIENLKKNPKTSEMMKDPQLVAKLIGYKQNPQAIGQDLFTDPRLMTIMATLMGVDLNMDDINQSNSMPKEPETSKSTEQKKDAEPQSDSTTSKENSSKAPQKEESKESEPMEVDEDDSKIEADKEKAEGNKFYKARQFDEAIEHYNKAWELHKDITYLNNRAAAEYEKGEYETAISTLNDAVEQGREMRADYKVISKSFARIGNAYHKLGDLKKTIEYYQKSLTEHRTADILTKLRNAEKELKKAEAEAYVNPEKAEEARLEGKEYFTKSDWPNAVKAYTEMIKRAPEDARGYSNRAAALAKLMSFPEAIADCNKAIEKDPNFVRAYIRKATAQIAVKEYASALETLDAARTKDAEVNNGSSAREIDQLYYKASQQRFQPGTSNETPEETYQRAMKDPEVAAIMQDPVMQSILQQAQQNPAALQEHMKNPEVFKKIQTLIAAGIIRTGR
For B1, the binding result in assay [1] and in assay [3] was “binds” in each case. Besides, the “fold stronger binding than to hHsp90” value in assay [2] is ~2 fold.

B2: Sti1 S258E (natural protein)
chain: MSLTADEYKQQGNAAFTAKDYDKAIELFTKAIEVSETPNHVLYSNRSACYTSLKKFSDALNDANECVKINPSWSKGYNRLGAAHLGLGDLDEAESNYKKALELDASNKAAKEGLDQVHRTQQARQAQPDLGLTQLFADPNLIENLKKNPKTSEMMKDPQLVAKLIGYKQNPQAIGQDLFTDPRLMTIMATLMGVDLNMDDINQSNSMPKEPETSKSTEQKKDAEPQSDSTTSKENSSKAPQKEESKESEPMEVDEDDEKIEADKEKAEGNKFYKARQFDEAIEHYNKAWELHKDITYLNNRAAAEYEKGEYETAISTLNDAVEQGREMRADYKVISKSFARIGNAYHKLGDLKKTIEYYQKSLTEHRTADILTKLRNAEKELKKAEAEAYVNPEKAEEARLEGKEYFTKSDWPNAVKAYTEMIKRAPEDARGYSNRAAALAKLMSFPEAIADCNKAIEKDPNFVRAYIRKATAQIAVKEYASALETLDAARTKDAEVNNGSSAREIDQLYYKASQQRFQPGTSNETPEETYQRAMKDPEVAAIMQDPVMQSILQQAQQNPAALQEHMKNPEVFKKIQTLIAAGIIRTGR
With B2, in assay [4], the binding result is given as “binds”.

B3: Sti1 S410E (natural protein)
chain: MSLTADEYKQQGNAAFTAKDYDKAIELFTKAIEVSETPNHVLYSNRSACYTSLKKFSDALNDANECVKINPSWSKGYNRLGAAHLGLGDLDEAESNYKKALELDASNKAAKEGLDQVHRTQQARQAQPDLGLTQLFADPNLIENLKKNPKTSEMMKDPQLVAKLIGYKQNPQAIGQDLFTDPRLMTIMATLMGVDLNMDDINQSNSMPKEPETSKSTEQKKDAEPQSDSTTSKENSSKAPQKEESKESEPMEVDEDDSKIEADKEKAEGNKFYKARQFDEAIEHYNKAWELHKDITYLNNRAAAEYEKGEYETAISTLNDAVEQGREMRADYKVISKSFARIGNAYHKLGDLKKTIEYYQKSLTEHRTADILTKLRNAEKELKKAEAEAYVNPEKAEEARLEGKEYFTKEDWPNAVKAYTEMIKRAPEDARGYSNRAAALAKLMSFPEAIADCNKAIEKDPNFVRAYIRKATAQIAVKEYASALETLDAARTKDAEVNNGSSAREIDQLYYKASQQRFQPGTSNETPEETYQRAMKDPEVAAIMQDPVMQSILQQAQQNPAALQEHMKNPEVFKKIQTLIAAGIIRTGR
Consider B3, for which the “fold increase in KD against the wild type” value in assay [4] was ~2 fold.

B4: Sti1 S227E (natural protein)
chain: MSLTADEYKQQGNAAFTAKDYDKAIELFTKAIEVSETPNHVLYSNRSACYTSLKKFSDALNDANECVKINPSWSKGYNRLGAAHLGLGDLDEAESNYKKALELDASNKAAKEGLDQVHRTQQARQAQPDLGLTQLFADPNLIENLKKNPKTSEMMKDPQLVAKLIGYKQNPQAIGQDLFTDPRLMTIMATLMGVDLNMDDINQSNSMPKEPETSKSTEQKKDAEPQEDSTTSKENSSKAPQKEESKESEPMEVDEDDSKIEADKEKAEGNKFYKARQFDEAIEHYNKAWELHKDITYLNNRAAAEYEKGEYETAISTLNDAVEQGREMRADYKVISKSFARIGNAYHKLGDLKKTIEYYQKSLTEHRTADILTKLRNAEKELKKAEAEAYVNPEKAEEARLEGKEYFTKSDWPNAVKAYTEMIKRAPEDARGYSNRAAALAKLMSFPEAIADCNKAIEKDPNFVRAYIRKATAQIAVKEYASALETLDAARTKDAEVNNGSSAREIDQLYYKASQQRFQPGTSNETPEETYQRAMKDPEVAAIMQDPVMQSILQQAQQNPAALQEHMKNPEVFKKIQTLIAAGIIRTGR
On to B4, for which the binding result in assay [4] is “binds”.

B5: Sti1 S95E (natural protein)
chain: MSLTADEYKQQGNAAFTAKDYDKAIELFTKAIEVSETPNHVLYSNRSACYTSLKKFSDALNDANECVKINPSWSKGYNRLGAAHLGLGDLDEAEENYKKALELDASNKAAKEGLDQVHRTQQARQAQPDLGLTQLFADPNLIENLKKNPKTSEMMKDPQLVAKLIGYKQNPQAIGQDLFTDPRLMTIMATLMGVDLNMDDINQSNSMPKEPETSKSTEQKKDAEPQSDSTTSKENSSKAPQKEESKESEPMEVDEDDSKIEADKEKAEGNKFYKARQFDEAIEHYNKAWELHKDITYLNNRAAAEYEKGEYETAISTLNDAVEQGREMRADYKVISKSFARIGNAYHKLGDLKKTIEYYQKSLTEHRTADILTKLRNAEKELKKAEAEAYVNPEKAEEARLEGKEYFTKSDWPNAVKAYTEMIKRAPEDARGYSNRAAALAKLMSFPEAIADCNKAIEKDPNFVRAYIRKATAQIAVKEYASALETLDAARTKDAEVNNGSSAREIDQLYYKASQQRFQPGTSNETPEETYQRAMKDPEVAAIMQDPVMQSILQQAQQNPAALQEHMKNPEVFKKIQTLIAAGIIRTGR
Take B5: the binding result in assay [1] is recorded as “binds”.

B6: Sti1 T37E (natural protein)
chain: MSLTADEYKQQGNAAFTAKDYDKAIELFTKAIEVSEEPNHVLYSNRSACYTSLKKFSDALNDANECVKINPSWSKGYNRLGAAHLGLGDLDEAESNYKKALELDASNKAAKEGLDQVHRTQQARQAQPDLGLTQLFADPNLIENLKKNPKTSEMMKDPQLVAKLIGYKQNPQAIGQDLFTDPRLMTIMATLMGVDLNMDDINQSNSMPKEPETSKSTEQKKDAEPQSDSTTSKENSSKAPQKEESKESEPMEVDEDDSKIEADKEKAEGNKFYKARQFDEAIEHYNKAWELHKDITYLNNRAAAEYEKGEYETAISTLNDAVEQGREMRADYKVISKSFARIGNAYHKLGDLKKTIEYYQKSLTEHRTADILTKLRNAEKELKKAEAEAYVNPEKAEEARLEGKEYFTKSDWPNAVKAYTEMIKRAPEDARGYSNRAAALAKLMSFPEAIADCNKAIEKDPNFVRAYIRKATAQIAVKEYASALETLDAARTKDAEVNNGSSAREIDQLYYKASQQRFQPGTSNETPEETYQRAMKDPEVAAIMQDPVMQSILQQAQQNPAALQEHMKNPEVFKKIQTLIAAGIIRTGR
On to B6, for which the binding result in assay [4] was “binds”.

B7: Hop S16E (natural protein)
chain: not shown
Turning to B7, the binding result in assay [4] is on record as “binds”.

B8: Hop Y354E (natural protein)
chain: not shown
For the molecule B8, in assay [4], the “fold increase in KD against the wild type” value is ~2 fold.
